Measurements reported in patent publication US20220119534A1 (DRAGONFLY THERAPEUTICS, published 2022).
Residue numbers refer to the chain shown, from its start. Numbers in names are those of the source. Where “and” joins values, the source holds several entries; their conditions need not be identical. Equal values may be shown once.

Legend:
mFc-hNKG2D [1] = biological target: T1, mFc-hNKG2D (human, UniProt P26718 73-216); assay: SPR Biacore 8K 37 C; mFc-hNKG2D captured on anti-mFc chip, TriNKET as analyte; 1:1 kinetic fit
T1 construct: extracellular domain; Made in house (Dragonfly Tx); the order of tag and ECD follows the name mFc-hNKG2D; also called mFc-tagged human NKG2D; not shown: mouse Fc tag
T1 sequence (looked up): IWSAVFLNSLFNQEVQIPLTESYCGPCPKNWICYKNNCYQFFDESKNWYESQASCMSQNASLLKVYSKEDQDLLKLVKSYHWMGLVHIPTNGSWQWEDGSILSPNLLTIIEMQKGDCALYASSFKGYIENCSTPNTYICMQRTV

mFc-hNKG2D [2] = biological target: T1, mFc-hNKG2D; assay: SPR Biacore 8K 37 C; mFc-hNKG2D captured on anti-mFc chip, TriNKET as analyte; steady state affinity fit
mFc-hNKG2D [3] = biological target: T1, mFc-hNKG2D; assay: SPR Biacore 8K 37 C; mFc-hNKG2D captured on anti-mFc chip, TriNKET as analyte; kinetics fit; average of 4
[4] = biological target: T2, Human CLEC12A-His (recombinant, K244 WT) (human, UniProt Q5QGZ9 65-265); assay: SPR, two-state fit
T2 construct: Made in house (Dragonfly Tx); also called hCLEC12A; hCLEC12A-His; not shown: His tag
T2 sequence: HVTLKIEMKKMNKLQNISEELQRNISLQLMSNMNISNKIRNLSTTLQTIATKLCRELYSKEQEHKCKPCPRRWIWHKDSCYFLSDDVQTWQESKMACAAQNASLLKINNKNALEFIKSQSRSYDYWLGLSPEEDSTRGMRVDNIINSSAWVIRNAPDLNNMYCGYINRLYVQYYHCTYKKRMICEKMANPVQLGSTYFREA

Human CLEC12A-K244Q-His = biological target: T3, Human CLEC12A-K244Q-His (human, UniProt Q5QGZ9 65-265); assay: SPR, two-state fit
T3 construct: also called hCLEC12A (Q244); CLEC12A (Q244); not shown: His tag
T3 chain: T2 sequence with K180Q

[5] = biological target: T4, Human CLEC12A expressed on cells (Ba/F3-hCLEC12A, PL21, HL60) (human, UniProt Q5QGZ9 1-265); assay: flow cytometry on HL-60 AML cells
T4 construct: Ba/F3 cells transduced with human CLEC12A; PL21 and HL60 AML lines express it endogenously; also called cell surface expressed CLEC12A
T4 sequence: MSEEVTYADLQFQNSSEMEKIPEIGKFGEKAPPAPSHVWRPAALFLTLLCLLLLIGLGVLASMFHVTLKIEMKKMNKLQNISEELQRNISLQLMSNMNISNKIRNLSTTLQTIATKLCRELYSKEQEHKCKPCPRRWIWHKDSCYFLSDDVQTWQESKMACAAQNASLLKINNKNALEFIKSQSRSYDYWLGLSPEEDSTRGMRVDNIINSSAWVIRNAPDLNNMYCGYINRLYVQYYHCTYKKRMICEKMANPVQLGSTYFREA

[6] = biological target: T2, Human CLEC12A-His (recombinant, K244 WT); assay: SPR, two-state fit; after low pH hold
[7] = biological target: T2, Human CLEC12A-His (recombinant, K244 WT); assay: SPR, two-state fit (kd1); control sample
[8] = biological target: T2, Human CLEC12A-His (recombinant, K244 WT); assay: SPR, two-state fit; after forced oxidation
[9] = biological target: T2, Human CLEC12A-His (recombinant, K244 WT); assay: SPR, untreated CLEC12A, two-state fit (kd1)
[10] = biological target: T2, Human CLEC12A-His (recombinant, K244 WT); assay: SPR, two-state fit (kd1); after pH 5.0, 40C, 2 wks
[11] = biological target: T2, Human CLEC12A-His (recombinant, K244 WT); assay: SPR, two-state fit (kd1); after 4 wks 40C in CST pH 7.0
[12] = biological target: T2, Human CLEC12A-His (recombinant, K244 WT); assay: SPR, two-state fit; control (fully purified protein study)
[13] = biological target: T5, human CLEC12A on cells (HL60, PL21, Ba/F3-hCLEC12A) (human, UniProt Q5QGZ9 1-265); assay: flow cytometry, PL21 cells
T5 construct: Endogenous on the AML lines HL60 and PL21; brought into mouse Ba/F3 cells by retroviral transduction; The cell line stands under assay; also called CLL-1
T5 sequence: T4 sequence

Cynomolgus CD64 = biological target: T6, Cynomolgus CD64 (cynomolgus monkey, UniProt A0A2K5U901 33-309, Probably biotinylated for capture, as in the sister examples (p-1094).); assay: SPR, cynomolgus CD64 captured; average for AB0192
T6 construct: Bought recombinant receptor; also called cFcγRI; Cynomolgus CD64 (FcγRI); not shown: The vendor's biotinylation and purification tag
T6 sequence (A0A2K5U901 entry or part of it limits assumed): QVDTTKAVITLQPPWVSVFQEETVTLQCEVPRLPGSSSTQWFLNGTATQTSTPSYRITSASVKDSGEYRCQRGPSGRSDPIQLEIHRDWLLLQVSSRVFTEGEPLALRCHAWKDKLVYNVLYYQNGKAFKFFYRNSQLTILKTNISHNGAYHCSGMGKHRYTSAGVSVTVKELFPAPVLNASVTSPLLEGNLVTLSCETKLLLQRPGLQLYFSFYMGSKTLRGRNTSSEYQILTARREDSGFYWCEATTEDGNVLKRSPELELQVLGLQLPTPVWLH

De-sialylated CLEC12A = biological target: T7, De-sialylated CLEC12A (human, UniProt Q5QGZ9 65-265, treated with neuraminidase (terminal sialic acids removed)); assay: SPR, de-sialylated CLEC12A; average of 3 replicates
T7 construct: Recombinant human CLEC12A after neuraminidase; also called de-sialylated hCLEC12A
T7 sequence: T2 sequence

[14] = biological target: T8, recombinant human CD16a V158 (human, UniProt P08637 17-208, biotinylated); assay: SPR 25C, kinetic fit, average
T8 construct: also called FcγRIIIa V158; hCD16aV
T8 sequence (P08637 17-208 F176V limits assumed): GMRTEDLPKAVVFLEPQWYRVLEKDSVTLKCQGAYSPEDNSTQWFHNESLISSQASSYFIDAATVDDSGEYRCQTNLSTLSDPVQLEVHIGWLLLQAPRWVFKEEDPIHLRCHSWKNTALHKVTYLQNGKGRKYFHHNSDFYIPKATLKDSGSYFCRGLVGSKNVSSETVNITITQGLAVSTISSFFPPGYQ

B1: F3'-1602 TriNKET (bispecific antibody, human IgG1, kappa)
chain: QLQLQESGPGLVKPSETLSLTCTVSGFSLTNYGLHWIRQPPGKCLEWIGVIWSGGKTDYNPSLKSRVTISKDTSKNQFSLKLSSVQAADTAVYYCAKYDYDDSLDYWGQGTLVTVSSGGGGSGGGGSGGGGSGGGGSDIQMTQSPSSLSASVGDRVTITCHASQNINFWLSWYQQKPGKAPKLLIYEASNLHTGVPSRFSGSGSGTRFTLTISSLQPEDIATYYCQQSHSYPLTFGCGTKLEIKGSDKTHTCPPCPAPELLGGPSVFLFPPKPKDTLMISRTPEVTCVVVDVSHEDPEVKFNWYVDGVEVHNAKTKPREEQYNSTYRVVSVLTVLHQDWLNGKEYKCKVSNKALPAPIEKTISKAKGQPREPRVYTLPPCRDELTKNQVSLTCLVKGFYPSDIAVEWESNGQPENNYKTTPPVLVSDGSFTLYSKLTVDKSRWQQGNVFSCSVMHEALHNHYTQKSLSLSPG
heavy: EVQLVESGGGLVKPGGSLRLSCAASGFTFSSYSMNWVRQAPGKGLEWVSSISSSSSYIYYADSVKGRFTISRDNAKNSLYLQMNSLRAEDTAVYYCARGAPIGAAAGWFDPWGQGTLVTVSSASTKGPSVFPLAPSSKSTSGGTAALGCLVKDYFPEPVTVSWNSGALTSGVHTFPAVLQSSGLYSLSSVVTVPSSSLGTQTYICNVNHKPSNTKVDKKVEPKSCDKTHTCPPCPAPELLGGPSVFLFPPKPKDTLMISRTPEVTCVVVDVSHEDPEVKFNWYVDGVEVHNAKTKPREEQYNSTYRVVSVLTVLHQDWLNGKEYKCKVSNKALPAPIEKTISKAKGQPREPQVCTLPPSRDELTENQVSLTCLVKGFYPSDIAVEWESNGQPENNYKTTPPVLDSDGSFFLYSWLTVDKSRWQQGNVFSCSVMHEALHNHYTQKSLSLSPG
light: DIQMTQSPSSVSASVGDRVTITCRASQGISSWLAWYQQKPGKAPKLLIYAASSLQSGVPSRFSGSGSGTDFTLTISSLQPEDFATYYCQQGVSFPRTFGGGTKVEIKRTVAAPSVFIFPPSDEQLKSGTASVVCLLNNFYPREAKVQWKVDNALQSGNSQESVTEQDSKDSTYSLSSTLTLSKADYEKHKVYACEVTHQGLSSPVTKSFNRGEC
notes: Trispecific F3' format: CLEC12A scFv-Fc paired with NKG2D Fab-Fc; Stressed and control samples of the stability studies are the same molecule; also called AB0237
- koff (mFc-hNKG2D [1]): 0.126 s⁻¹ and 0.13 s⁻¹ and 0.131 s⁻¹ and 0.132 s⁻¹
- kon (mFc-hNKG2D [1]): 180000 M⁻¹ s⁻¹ and 184000 M⁻¹ s⁻¹ and 175000 M⁻¹ s⁻¹
- Kd (mFc-hNKG2D [2]): 709 nM and 751 nM and 740 nM
- Kd (mFc-hNKG2D [3]): 721 nM

B2: AB0089 TriNKET (bispecific antibody, human IgG1, kappa)
chain: B1 chain with S53V, K56A, K71V, Y98G, D101G, S103T, R207D, I220F
heavy: B1 heavy
light: B1 light
notes: F3' format heterodimer of three chains; human IgG1 Fc with EW-RVT and Y349C/S354C mutations; also called AB0089 Lot AB0089-002; CLEC12A TriNKET AB0089
- Kd [4]: 0.6 nM
- Kd (Human CLEC12A-K244Q-His): 1.17 nM
- EC50 [5]: 0.74 nM
- Kd [6]: 0.7 nM
- koff [7]: 0.042 s⁻¹
- Kd [8]: 0.9 nM
- koff [9]: 0.0398 s⁻¹
- koff [10]: 0.0427 s⁻¹
- koff [11]: 0.0373 s⁻¹
- Kd [12]: 0.51 nM

B3: AB0192 TriNKET (other)
chain: EVQLVESGGGVVQPGGSLRLSCAASGFTFNAFGMHWVRQAPGKCLEWVAFISSGSTSIYYANTVKGRFTISRDNSKNTLYLQMNSLRAEDTAVYYCARDGYPTGGAMDYWGQGTSVTVSSGGGGSGGGGSGGGGSGGGGSDIQMTQSPSSLSASVGDRVTITCKASQDIYNYLSWFQQKPGKAPKPLIYRANILVSGVPSRFSGSGSGQDYTFTISSLQPEDIATYYCLQFDAFPFTFGCGTKLEIKGSDKTHTCPPCPAPELLGGPSVFLFPPKPKDTLMISRTPEVTCVVVDVSHEDPEVKFNWYVDGVEVHNAKTKPREEQYNSTYRVVSVLTVLHQDWLNGKEYKCKVSNKALPAPIEKTISKAKGQPREPRVYTLPPCRDELTKNQVSLTCLVKGFYPSDIAVEWESNGQPENNYKTTPPVLVSDGSFTLYSKLTVDKSRWQQGNVFSCSVMHEALHNHYTQKSLSLSPG
heavy: B1 heavy
light: B1 light
notes: the condition stands under assay; also called AB0192 Lot AB0192-005
- EC50 [13]: 0.43 nM
- Kd (Cynomolgus CD64): 1.9 nM
- koff (Cynomolgus CD64): 0.00012 s⁻¹
- kon (Cynomolgus CD64): 62000 M⁻¹ s⁻¹
- Kd (De-sialylated CLEC12A): 1.04 nM
- koff (De-sialylated CLEC12A): 0.00104 s⁻¹
- kon (De-sialylated CLEC12A): 1.01e+06 M⁻¹ s⁻¹

B4: F3'-1602 TriNKET (other)
chain: B1 chain
heavy: B1 heavy
light: B1 light
notes: CLEC12A scFv-Fc, NKG2D A49MI Fab-Fc, human IgG1 Fc; also called AB0237
- Kd [14]: 238 nM
- koff [14]: 0.022 s⁻¹
- kon [14]: 94000 M⁻¹ s⁻¹
